Assay results published in patent US6214868A, “Method for preventing or treating coronary restenosis with catechin” (Sam-A Pharm. Co., Ltd., priority 2000, dated 2001).

Legend:
Type in all cases: cell-based
rat VSMCs = assay: Inhibition of VSMC growth, 3H-thymidine DNA incorporation, in the presence of PDGF-BB; settings: in words; 50 ng/ml PDGF-BB, control data
Description: Each rat was suffocated with CO2, and its chest was disinfected and incised to remove the arteriae aorta. All operative apparatus and glass articles were autoclaved and all operations were conducted on a clean bench. The arteriae aorta was dipped in physiological salt solution(PSS) and its adipose tissues were removed. The resulting arteriae aorta was treated with 0.2% collagenase in an incubator maintained at 37° C. for 30 minutes. Its endothelium and adventitia were removed and the resulting arteriae aorta was ground up. A complete DMEM (DMEM containing 10% FBS, an antibiotic and glutamine) containing 0.2% collagenase was added thereto and the resulting mixture was kept at 37° C. for 4 hours while shaking with an orbital shaker.
The resulting mixture was centrifuged at 1,500×g for 5 minutes to remove the collagenase and the cell precipitate was suspended in an appropriate amount of complete DMEM. […]
The wells were washed twice with a serum-free medium, Hunger medium(Gibco), and fresh Hunger medium was added thereto. […] A 50 μl portion of the resulting reaction mixture was subjected to protein quantification. Further, a 100 μl portion of the resulting reaction mixture was added to 5 ml of a cocktail solution to measure the radioactivity, thereby determining the amount of ^3 H-thymidine incorporated into the cell. […]

p44^mapk = assay: Phosphorylation of p44^mapk in rat VSMCs (western blotting); settings: in words; western blot
Description: (§1) The resulting culture was incubated for 24 hours. 50 ng/ml of PDGF-BB was added thereto and kept for 5 minutes. […] The above procedure was also repeated without PDGF-BB treatment.
(§2) The VSMC was lysed and the VSMC lysate(corresponding amount to 70 μg proteins) was subjected to SDS-PAGE. The proteins separated on the gel was transferred to a nitrocellulose membrane and the membrane was saturated with Tris buffered saline(TBS) containing 3% milk protein. A primary antibody(Promega, dilution ratio: 1:5,000) for catalytically activated p44^mapk /p42^mapk whose threonine and tyrosine residues are phosphorylated, was added thereto and kept over night. The membrane was washed three times with TBS containing 0.05% Tween 20. The membrane was reacted with a horseradish peroxidase-conjugated anti-IgG secondary antibody and developed using Amersham ECL kit. Linearity of MAPK concentration-ECL signal correlation was examined using standard p42, a recombinant, activated MAPK(Upstate Biotechnology), and serially diluted artery tissue homogenate. Bands on the X-ray film were quantified using Molecular Dynamics personal laser densitometer.

p42^mapk = assay: Phosphorylation of p42^mapk in rat VSMCs (western blotting); settings: in words; western blot
Description: as §1, §2

B1: PDGF-BB: platelet derived growth factor(PDGF)-BB (protein, UniProt P01127 82-190, looked up)
Platelet-derived growth …: SLGSLTIAEPAMIAECKTRTEVFEISRRLIDRTNANFLVWPPCVEVQRCSGCCNNRNVQCRPTQVQLRPVQVRKIEIVRKKPIFKKATVTLEDHLACKCETVAAARPVT
modifications: BB homodimer
For B1, the “VSMC growth on PDGF-BB treatment” value (rat VSMCs) was “greatly enhances the VSMC growth”, the “phosphorylated p44^mapk /p42^mapk band density (p44)” value (p44^mapk) was “enhanced density as compared with the blank” and the “phosphorylated p44^mapk /p42^mapk band density (p42)” value (p42^mapk) was “enhanced density as compared with the blank”.
